In patent publication US20260109758A1 (BIOSION, published 2026):
Like-named read-outs stand apart in the source and are kept apart here.

How the values were obtained:
[1] = molecular target: T1, human IL4Rα expressed on 293F-IL4Rα cell surface (human, UniProt P24394 26-825); experiment: cell-based blocking FACS on 293F-IL4Rα cells; blocked ligand biotin human IL4
T1 construct: whole, on cells; also called human IL4Rα-expressing cells; cell surface IL4R
Protocol: (§1) Then, 1×10⁵ cells per well were incubated in 96 well-plates in 100 μL of serially diluted bispecific antibodies, the positive controls or negative control (starting at 100 nM with a 5-fold serial dilution) in FACS buffer for 40 minutes on ice. […] The plates were washed twice with FACS buffer, and then added and incubated for 40 minutes at 4° C. in dark with 100 μL/well R-Phycoerythrin Streptavidin (1:500 dilution in FACS buffer, Jackson Immunoresearch, Cat #016-110-084). Cells were washed twice and resuspended in FACS buffer. Fluorescence was measured using a Becton Dickinson FACS Canto II-HTS equipment. Data was analyzed using Graphpad Prism and IC₅₀ values were reported.

[2] = molecular target: T1, human IL4Rα expressed on 293F-IL4Rα …; experiment: flow cytometry on 293F-IL4Rα cells, PE anti-human IgG Fc
Protocol: (§2) Cells were washed twice with FACS buffer, and added with 100 μL/well R-Phycoerythrin AffiniPure Goat Anti-Human IgG, Fey fragment specific (1:1000 dilution in FACS buffer, Jackson Immunoresearch, Cat #109-115-098). Following an incubation of 40 minutes at 4° C. in dark, cells were washed three times and resuspended in FACS buffer. Fluorescence was measured using a Becton Dickinson FACS Canto II-HTS equipment. Data was analyzed using Graphpad Prism and EC₅₀ values were reported.

[3] = molecular target: T2, recombinant human IL4Rα-his (human, UniProt P24394 26-231, limits assumed, biotin-labeled in the capture ELISA); experiment: SPR Biacore T200; antibody captured on anti-human IgG CM5 chip, IL4Rα-his as analyte; 1:1 Langmuir fit
T2 construct: In-house made; not shown: His tag at the C-terminus
Protocol: The goat anti-human IgG (GE healthcare, Cat #BR100839, Human Antibody Capture Kit) was covalently linked to a CM5 chip (carboxy methyl dextran coated chip) via primary amines, using a standard amine coupling kit provided by Biacore (GE healthcare, Pittsburgh, PA, USA). Un-reacted moieties on the biosensor surface were blocked with ethanolamine. Then, purified bispecific antibodies of the disclosure at the concentration of 66.67 nM and the controls at 10 μg/mL, were flowed onto the chip at a flow rate of 10 μL/min. Then, serially diluted recombinant human IL4Rα-his (in house made, IL4Rα of SEQ ID NO: 33 with His tag at C-terminus) in HBS EP buffer (provided by Biacore) was flowed onto the chip at a flow rate of 30 μL/min. The association and dissociation curves were fit to a 1:1 Langmuir binding model using BIAcore evaluation software.

[4] = molecular target: T1, human IL4Rα expressed on 293F-IL4Rα …; experiment: flow cytometry on 293F-IL4Rα cells, PE anti-human IgG Fc; remark: listed apart in the source
Protocol: as §2

[5] = molecular target: T1, human IL4Rα expressed on 293F-IL4Rα …; experiment: cell-based blocking FACS on 293F-IL4Rα cells; blocked ligand biotin human IL4; remark: listed apart in the source
Protocol: as §1

[6] = molecular target: T2, recombinant human IL4Rα-his; experiment: capture ELISA: antibody captured on anti-human IgG Fc F(ab')2, biotin human IL4Rα-his, SA-HRP
Protocol: (§3) Briefly, 96-well plates were coated with 2 μg/mL AffiniPure F(ab′)₂ Fragment Goat Anti-Human IgG, Fey fragment specific (Jackson Immuno Research, Cat #109-006-008) in PBS, 100 μL/well, overnight at 4° C. Plates were washed once with wash buffer (PBS+0.05% w/v Tween-20, PBST) and then blocked with 200 μL/well blocking buffer (5% w/v non-fatty milk in PBST) for 2 hours at 37° C. […] After a final wash, plates were incubated with 100 μL/well ELISA substrate TMB (Innoreagents, Cat #TMB-S-002). The reaction was stopped in 10 minutes at 25° C. with 50 μL/well 1M H₂SO₄, and the absorbance was read on a microplate reader using dual wavelength mode with 450 nm for TMB and 630 nm as the reference wavelength. Data was analyzed using Graphpad Prism and EC₅₀ values were reported.

[7] = molecular target: T2, recombinant human IL4Rα-his; experiment: as above; remark: listed apart in the source
Protocol: as §3

[8] = molecular target: T2, recombinant human IL4Rα-his; experiment: competitive ELISA: coated human IL4Rα-his, antibody titrated; blocked ligand biotin human IL4
Protocol: Briefly, 100 μL human IL4Rα-his proteins (prepared in-house, IL4Rα of SEQ ID NO: 33 with C-terminal His tag) were coated on 96-well micro plates at 2 μg/mL in PBS overnight at 4° C. The next day, plates were washed with wash buffer (PBS+0.05% w/v Tween-20, PBST), and blocked with 5% w/v non-fatty milk in PBST for 2 hours at 37° C. Plates were then washed again using wash buffer. Serially diluted bispecific antibodies or the controls (starting at 100 nM with a 5-fold serial dilution) in 2.5% w/v non-fatty milk in PBST, 100 μL per well, were added to the IL4Rα bound plates, and incubated at 37° C. for 40 minutes. […] Plates were washed again using wash buffer. Thereafter, the plates were added with 100 μL/well of streptavidin conjugated HRP (1:10000 dilution in PBST buffer, Jackson Immunoresearch, Cat #016-030-084) and incubated for 40 minutes at 37° C. Plates were washed again using wash buffer. Finally, TMB was added and the reaction was stopped using 1M H₂SO₄, and the absorbance was read at 450 nm. Data was analyzed using Graphpad Prism and IC₅₀ values were reported.

[9] = molecular target: T3, recombinant human TSLP-his (human, UniProt Q969D9 29-159, biotin-labeled in the ELISAs); experiment: SPR Biacore; TSLP-his amine-coupled to CM5 chip, antibody as analyte; 1:1 Langmuir fit
T3 construct: In-house made; not shown: His tag at the C-terminus
Protocol: Un-reacted moieties on the biosensor surface were blocked with ethanolamine. Then, serially diluted purified bispecific antibodies and the controls (2-fold serial dilution in HBS-EP⁺ buffer starting at 100 nM) were respectively flowed onto the chip at a flow rate of 30 μL/min. The antigen-antibody association kinetics was followed for 4 minutes and the dissociation kinetics was followed for 13 minutes.

[10] = molecular target: T2, recombinant human IL4Rα-his; experiment: dual-binding ELISA: coated human IL4Rα-his, antibody titrated, detection with biotin human TSLP-his and SA-HRP; signal needs both antigens bound
Protocol: For the dual-binding ELISA, 96-well ELISA plates were firstly coated with 100 μL 1 μg/mL human IL4Rα-his protein (IL4Rα of SEQ ID NO: 33 with His tag at C terminus, prepared in-house) in PBS overnight at 4° C. ELISA plates were washed 4 times with wash buffer (PBS+0.05% Tween-20, PBST) and then blocked with 200 μL/well blocking buffer (5% w/v non-fatty milk in PBST) for 2 hours at 37° C. […] ELISA plates were washed again and incubated with SA-HRP (100 μl/well) for 40 minutes at 37° C. After the final wash, 100 μL/well TMB (Innoreagents) was added. The reaction was stopped 15 minutes later at room temperature with 50 μL/well 1M H₂SO₄, and the absorbance was read on a microplate reader using dual wavelength mode with 450 nm for TMB and 630 nm as the reference wavelength. The OD (450-630) values were plotted against antibody concentration. Data was analyzed using Graphpad Prism and EC₅₀ values were reported.

[11] = molecular target: T4, biotin-labeled human TSLP-Fc (human, biotin-labeled); experiment: cell-based blocking FACS: antibody pre-mixed with biotin human TSLP-Fc; blocked binding to cell-surface TSLPR/IL7Ra on HEK293T-TSLPR/IL7R/STAT5-Luc 5C5 cells
T4 construct: also called TSLP-Fc protein; TSLP-Fc-biotin
Protocol: (§4) The cells were prepared following the instruction of lipofectamine 3000 transfection reagent (Thermo Fisher), by transfecting HEK293T cells (ATCC® CRL-11268) with pCMV-T-P plasmids inserted with TSLPR coding sequence between EcoRI and Xba1 sites and pCMV3-SP plasmids inserted with IL7Ra coding sequence between HindIII and Xba1 sites as well as pGL4.52 [luc2P/STAT5RE/Hygro](Promega).
(§5) The cells were harvested from cell culture flasks, washed twice and re-suspended in phosphate buffered saline (PBS) containing 2% v/v Fetal Bovine Serum (FACS buffer). […] Cells were washed twice with FACS buffer, and then added and incubated with 100 μL/well R-Phycoerythrin Streptavidin (1:500 dilution in FACS buffer, Jackson Immunoresearch, Cat #016-110-084) for 40 minutes at 4° C. in dark. Cells were washed twice and re-suspended in FACS buffer. Fluorescence was measured using a Becton Dickinson FACS Canto II-HTS equipment. Data was analyzed using Graphpad Prism and IC₅₀ values were reported.

[12] = molecular target: T4, biotin-labeled human TSLP-Fc; experiment: as above; remark: listed apart in the source
Protocol: as §4, §5

Binder	IC50 [1] [nM]	EC50 [2] [nM]	Kd [3] [nM]	koff [3] [s⁻¹]	kon [3] [M⁻¹ s⁻¹]	EC50 [4] [nM]	IC50 [5] [nM]	EC50 [6] [nM]	EC50 [7] [nM]	IC50 [8] [nM]	Kd [9] [nM]	koff [9] [s⁻¹]	kon [9] [M⁻¹ s⁻¹]	EC50 [10] [nM]	IC50 [11] [nM]	IC50 [12] [nM]
huC2C1A1A1-V15(IgG1) (antibody, Monospecific control, full-length IgG1; also called huC2C1A1A-V15(IgG1); anti-IL4R huC2C1A1A1-V15) heavy: EVQLVESGGGLVQPGGSLRLSCAASGFTFSTYGMSWVRQAPGKGLVWVATINSNGGSTSYPDSVKGRFTISRDNAKNTLYLQMNSLRAEDTAVYYCARFFRFRNAMDYWGQGTLVTVSSASTKGPSVFPLAPSSKSTSGGTAALGCLVKDYFPEPVTVSWNSGALTSGVHTFPAVLQSSGLYSLSSVVTVPSSSLGTQTYICNVNHKPSNTKVDKKVEPKSCDKTHTCPPCPAPEAQGGPSVFLFPPKPKDTLYITREPEVTCVVVDVSHEDPEVKFNWYVDGVEVHNAKTKPREEQYNSTYRVVSVLTVLHQDWLNGKEYKCQVSNKALPAPIEKTISKAKGQPREPQVYTLPPSRDELTKNQVSLTCLVKGFYPSDIAVEWESNGQPENNYKTTPPVLDSDGSFFLYSKLTVDKSRWQQGNVFSCSVMHEALHNHYTQKSLSLSPG light: DIQMTQSPSSLSASVGDRVTITCRTSENIYSYLAWYQQKPGKAPKFLVYNAKTLAEGVPSRFSGSGSGTDFTLTISSLQPEDFATYYCQHYYGPPTWTFGQGTKVEIKRTVAAPSVFIFPPSDEQLKSGTASVVCLLNNFYPREAKVQWKVDNALQSGNSQESVTEQDSKDSTYSLSSTLTLSKADYEKHKVYACEVTHQGLSSPVTKSFNRGEC	0.172	~0.162	2.07	0.000348	168000	~0.165	0.159	0.0294	0.0201							
BSI-502-006 (bispecific antibody, human IgG1, kappa, hu1C5F12E9-V8 IgG with an anti-IL4R scFv (VL-VH) at the C-terminus of the heavy chain; AQQ and YTE already stand in the entry) heavy: QVQLVQSGAEVKKPGASVKVSCKASGYTFTTYWMHWVRQAPGQGLEWMGVIDPSDSDTTYNQKFKGRVTMTRDTSTSTVYMELSSLRSEDTAVYYCTRSLDGYYDYWGQGTLVTVSSASTKGPSVFPLAPSSKSTSGGTAALGCLVKDYFPEPVTVSWNSGALTSGVHTFPAVLQSSGLYSLSSVVTVPSSSLGTQTYICNVNHKPSNTKVDKKVEPKSCDKTHTCPPCPAPEAQGGPSVFLFPPKPKDTLYITREPEVTCVVVDVSHEDPEVKFNWYVDGVEVHNAKTKPREEQYNSTYRVVSVLTVLHQDWLNGKEYKCQVSNKALPAPIEKTISKAKGQPREPQVYTLPPSRDELTKNQVSLTCLVKGFYPSDIAVEWESNGQPENNYKTTPPVLDSDGSFFLYSKLTVDKSRWQQGNVFSCSVMHEALHNHYTQKSLSLSPGKGGGGSGGGGSDIQMTQSPSSLSASVGDRVTITCRTSENIYSYLAWYQQKPGKAPKFLVYNAKTLAEGVPSRFSGSGSGTDFTLTISSLQPEDFATYYCQHYYGPPTWTFGQGTKVEIKGGGGSGGGGSGGGGSGGGGSEVQLVESGGGLVQPGGSLRLSCAASGFTFSTYGMSWVRQAPGKGLVWVATINSNGGSTSYPDSVKGRFTISRDNAKNTLYLQMNSLRAEDTAVYYCARFFRFRNAMDYWGQGTLVTVSS light: DIQMTQSPSSLSASVGDRVTITCRPTENIYSYLAWYQQKPGKAPKLLIYFARTLAEGVPSRFSGSGSGTDFTLTISSLQPEDFATYYCQHHYGTPWTFGGGTKVEIKRTVAAPSVFIFPPSDEQLKSGTASVVCLLNNFYPREAKVQWKVDNALQSGNSQESVTEQDSKDSTYSLSSTLTLSKADYEKHKVYACEVTHQGLSSPVTKSFNRGEC		0.458	4.88	0.000244	50000		0.326	0.182		0.38	< 0.0141	< 1e-05	710000	0.104	1.13	
Tezepelumab (antibody, human IgG2, lambda, V domains shown, Positive control, prepared in-house; also called an anti-TSLP antibody) VH: QMQLVESGGGVVQPGRSLRLSCAASGFTFRTYGMHWVRQAPGKGLEWVAVIWYDGSNKHYADSVKGRFTITRDNSKNTLNLQMNSLRAEDTAVYYCARAPQWELVHEAFDIWGQGTMVTVSS VL: SYVLTQPPSVSVAPGQTARITCGGNNLGSKSVHWYQQKPGQAPVLVVYDDSDRPSWIPERFSGSNSGNTATLTISRGEAGDEADYYCQVWDSSSDHVVFGGGTKLTVLG																1.23
